Target: T1, His-PRL-2 (human, UniProt Q12974 1-167)
T1 construct: human PRL-2 (PTP4A2), 19-kDa construct; also called recombinant PRL-2; 19-kDa PRL-2 construct; source: Escherichia coli BL21, purified
T1 sequence (looked up): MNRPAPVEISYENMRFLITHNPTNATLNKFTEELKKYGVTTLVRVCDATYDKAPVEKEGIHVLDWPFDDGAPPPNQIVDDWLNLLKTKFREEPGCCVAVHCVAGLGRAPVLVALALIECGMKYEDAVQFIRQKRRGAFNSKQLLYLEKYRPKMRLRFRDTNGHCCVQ
Experiment: pull-down; in vitro; 20 ng GST-CBS on glutathione-Sepharose beads, equimolar His-PRL-2 (~10 ng), 4 °C 1 h; 150 mM NaCl, 20 mM Tris, 1% Triton-X, 5 mM 2-mercaptoethanol; without inhibitor (control)
Conditions: both partners purified

B1: GST-CBS (Bateman module of human CNNM3, amino acids 302-452) (domain or fragment, UniProt Q8NE01 302-452, looked up)
chain: SDLSKGVLRCRTVEDVLTPLEDCFMLDASTVLDFGVLASIMQSGHTRIPVYEEERSNIVDMLYLKDLAFVDPEDCTPLSTITRFYNHPLHFVFNDTKLDAVLEEFKRGKSHLAIVQKVNNEGEGDPFYEVLGLVTLEDVIEEIIRSEILDE
notes: human CNNM3, Bateman module, amino acids 302-452; also called GST-2xCBS; CBS tandem domain of CNNM3; source: Escherichia coli BL21, purified
binding result: binds

From article PMC4865918, “Inhibition of PRL-2·CNNM3 Protein Complex Formation Decreases Breast Cancer Proliferation and Tumor Growth*” (The Journal of Biological Chemistry, 2016)
